1 molecule from PMC11162469, “Discovery of RXFP2 genetic association in resistant hypertensive men and RXFP2 antagonists for the treatment of resistant hypertension” (Scientific Reports, 2024) can be followed below.

Conditions in all cases: both partners purified
Assay [1] concerns the target T1, linker-less human LDLa peptide (Q8WXD0 43-80) (Homo sapiens, UniProt Q8WXD0, not fully specified).
T1 construct: relaxin family peptide receptor 2 (RXFP2), human, LDLa module without the linker, residues 43-80; also called LDLa linker-less domain
T1 chain: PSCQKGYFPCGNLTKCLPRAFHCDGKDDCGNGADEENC
Kind of assay: ELISA; human LDLa peptide (Q8WXD0 43-80) immobilised at 1 µg/mL in PBS on Maxisorp plates overnight at 4 °C; purified antibodies from 5 µg/mL, diluted 1:2 for 8 points, 1 h at room temperature; HRP secondary antibody, TMB. On the technique in general: ELISA stands for enzyme-linked immunosorbent assay.

The target in assay [2] is T2, human LDLa-linker protein (huRXFP2-LDLa-linker(38-105)) (Homo sapiens, UniProt Q8WXD0).
T2 construct: relaxin family peptide receptor 2 (RXFP2), human, LDLa module and linker, residues 38-105; Expressed as LDLa-linker, enterokinase site, rat Fc, 8xHis; The Biacore methods say only 'LDLa-linker protein'; also called human LDLa-linker domain; source: Expi293, transfected, purified (Histrap excel, SEC); enterokinase digestion, Hispur Ni resin, Superdex 200; not shown: rat Fc, C-terminal, cleaved; …
T2 sequence (Q8WXD0 38-105): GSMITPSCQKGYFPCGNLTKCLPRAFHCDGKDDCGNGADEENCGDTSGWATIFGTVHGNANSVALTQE
Kind of assay: SPR; Biacore S200; goat anti-rat Fc gamma immobilised on a Series S CM5 chip, purified recombinant rat anti-RXFP2 antibodies captured at 5 µg/mL; rat or human LDLa-linker protein flowed as analyte at 20, 10, 5, 2.5, 1.75 and 0 nM; 1:1 fit model. (In general: In SPR one partner is held on a chip, and binding of the other changes the refractive index at the surface.)

The target in assay [3] is T3, rat LDLa-linker protein (ratRXFP2-LDLa-linker(20-88)) (Rattus norvegicus, UniProt Q5ECL0).
T3 construct: relaxin family peptide receptor 2 (RXFP2), rat, LDLa module and linker, residues 20-88; Expressed as LDLa-linker, enterokinase site, rat Fc, 8xHis; The Biacore methods say only 'LDLa-linker protein'; also called rat LDLa-linker domain; source: Expi293, transfected, purified (Histrap excel, SEC); enterokinase digestion, Hispur Ni resin, Superdex 200; not shown: rat Fc, C-terminal, cleaved; 8xHis, …
T3 sequence (Q5ECL0 entry or part of it): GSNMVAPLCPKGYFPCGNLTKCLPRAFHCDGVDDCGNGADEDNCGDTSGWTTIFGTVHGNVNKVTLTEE
The description is as above.

B1: RXFP2 mAb 4G6 (antibody, V domains shown)
VH: EVQLQQSGPELVKPGASVKLSCKASGYTFTSYVMHWVKQKPEQGLEWIGYKNPSNDGIKYNEKFKGKATLTSDKSSNIAYMELFSLTSEDSAVYYCARSDFGSVWAMDYWGQGTSVTVSS
VL: SIVMTQTPKFLLVSAGDRVTITCKASQSVNDDIVWYQQKPGQSPKLLIYYASNRYTGVPDRFTGSGYGTDFTFTISTVQAGDLAVYFCQQDYSSPFTFGSGTKLEIK
notes: heavy chain variable domain; rat IgG2b heavy chain constant region (rat IgG2b backbone, in-house construct); Recombinant in a rat IgG2b backbone; found as a mouse hybridoma clone; source: Expi293, transfected, purified (Protein G)
One may read the Kd as a measure of binding affinity in units of concentration. For B1, the binding result in assay [1] is “binds”. For the same molecule, the Kd came out at 2.91 nM in assay [2] and 0.21 nM in assay [3].
